Data published in US20190071480A1 (Biogen, published 2019).
Substitutions are numbered along the chain they refer to.

Key:
[1] = target: T1, extracellular domain of activin receptor type IIB (ActRIIBecd), biotinylated (Homo sapiens (Human), UniProt Q13705 27-117, amino-biotinylated with amine-PEG3-Biotin); assay: BIAcore SPR, biotinylated ActRIIBecd on chip; SD ±16.51 nM
T1 construct: immobilised on a streptavidin-coated sensor chip; also called biotinylated ActRIIBecd; extracellular domain of ActRIIB
T1 sequence: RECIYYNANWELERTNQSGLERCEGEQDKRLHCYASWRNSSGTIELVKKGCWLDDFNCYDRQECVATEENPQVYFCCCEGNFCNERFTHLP
Description: (§1) Biosensor experiments. In one embodiment, experiments were performed on a BIAcore™ T100/T200 instrument (Pharmacia Biosensor AB) in the multichannel mode (serial flow path involving flow cells 1+2+3+4). Flow rate was 10 μl/min; temperature was 25° C.; and data were recorded at 2.5 points/s. All four segments of a sensor chip CMS were coated with streptavidin (Sigma) to a density of 2000 pg/mm² (2000 resonance units) by the aminocoupling procedure. ActRIIBecd (10 mg) and amine-PEG3-Biotin (10 mg, Pierce, Rockford, Ill.) were dissolved in 200 μl H₂O and 10 mg NaCNBH₃ was added to prepare biotinylated ActRIIBecd. The reaction mixture was heated at 70° C. for 24 h, after that a further 10 mg NaCNBH₃ was added and the reaction was heated at 70° C. for another 24 h. After cooling to room temperature, the mixture was desalted with the spin column (3,000 molecular weight cut off (MWCO)). […] Sensograms were recorded during flow of the analyte (the ActRIIBecd-associated polypeptides (i.e., domains) as previously described) first through flow cell 1 (control) then through flow cell 2 (biotinylated ActRIIBecd). […] The sensograms obtained at 1.11, 3.33, 10, 30, and 90 nM analyte were evaluated for equilibrium binding, association rate, and dissociation rate by using the programs supplied with the instrument (BIA evaluation 2.1; Software Handbook. 1995; Pharmacia Biosensor AB).

[2] = target: T1, extracellular domain of activin …; assay: BIAcore SPR, biotinylated ActRIIBecd on chip; SD ±16.58 nM
Description: as §1

[3] = target: T1, extracellular domain of activin …; assay: BIAcore SPR, biotinylated ActRIIBecd on chip; SD ±13.03 nM
Description: as §1

[4] = target: T1, extracellular domain of activin …; assay: BIAcore SPR, biotinylated ActRIIBecd on chip; SD ±13.24 nM
Description: as §1

[5] = target: T1, extracellular domain of activin …; assay: BIAcore SPR, biotinylated ActRIIBecd on chip; SD ±12.76 nM
Description: as §1

[6] = target: T1, extracellular domain of activin …; assay: BIAcore SPR, biotinylated ActRIIBecd on chip; SD ±12.78 nM
Description: as §1

[7] = target: T1, extracellular domain of activin …; assay: BIAcore SPR, biotinylated ActRIIBecd on chip; SD ±12.07 nM
Description: as §1

[8] = target: T1, extracellular domain of activin …; assay: BIAcore SPR, biotinylated ActRIIBecd on chip; SD ±14.78 nM
Description: as §1

[9] = target: T1, extracellular domain of activin …; assay: BIAcore SPR, biotinylated ActRIIBecd on chip; SD ±11.20 nM
Description: as §1

[10] = target: T1, extracellular domain of activin …; assay: BIAcore SPR, biotinylated ActRIIBecd on chip; SD ±12.47 nM
Description: as §1

[11] = target: T1, extracellular domain of activin …; assay: BIAcore SPR, biotinylated ActRIIBecd on chip; SD ±19.51 nM
Description: as §1

[12] = target: T1, extracellular domain of activin …; assay: BIAcore SPR, biotinylated ActRIIBecd on chip; SD ±13.64 nM
Description: as §1

[13] = target: T1, extracellular domain of activin …; assay: BIAcore SPR, biotinylated ActRIIBecd on chip; SD ±12.74 nM
Description: as §1

[14] = target: T1, extracellular domain of activin …; assay: BIAcore SPR, biotinylated ActRIIBecd on chip; SD ±14.25 nM
Description: as §1

[15] = target: T1, extracellular domain of activin …; assay: BIAcore SPR, biotinylated ActRIIBecd on chip; SD ±11.79 nM
Description: as §1

[16] = target: T1, extracellular domain of activin …; assay: BIAcore SPR, biotinylated ActRIIBecd on chip; SD ±13.21 nM
Description: as §1

[17] = target: T1, extracellular domain of activin …; assay: BIAcore SPR, biotinylated ActRIIBecd on chip; SD ±15.71 nM
Description: as §1

[18] = target: T1, extracellular domain of activin …; assay: BIAcore SPR, biotinylated ActRIIBecd on chip; SD ±13.71 nM
Description: as §1

[19] = target: T1, extracellular domain of activin …; assay: BIAcore SPR, biotinylated ActRIIBecd on chip; SD ±13.42 nM
Description: as §1

B1: Recombinant polypeptide of clones 14 + 8 (designed binder)
chain: VDFKDVGWNDHAVAPPGYHAFYCHGECPFPLADHLNSDNHAIVQTKVNSVGQAKRKGYKRLKSSCKRHPLY
Kd [1]: 33.8 nM

B2: Recombinant polypeptide of clones 21 + 15 (designed binder)
chain: NSKIPKACCVPTELSAISMLYLDENEKVVLKNYQDMVVEGCGCRVDFSDVGWNDWIVAPPGYHAFYCHGECPFPLADHLNSTNHAIVQTLVNSV
Kd [2]: 31 nM

B3: Recombinant polypeptide of clones 19 + 14 (designed binder)
chain: B2 chain with I4D, I17P, M19P, V28P, E39H, S48K, W55H, I56A, T82D, L90K
Kd [3]: 32.1 nM

B4: Recombinant polypeptide of clones 8 + 14 + 19 (designed binder)
chain: GQAKRKGYKRLKSSCKRHPLYVDFKDVGWNDHAVAPPGYHAFYCHGECPFPLADHLNSDNHAIVQTKVNSVNSKDPKACCVPTELSAPSPLYLDENEKPVLKNYQDMVVHGCGCR
Kd [4]: 15.6 nM

B5: Recombinant polypeptide of clones 21 + 10 (designed binder)
chain: NSKIPKACCVPTELSAISMLYLDENEKVVLKNYQDMVVEGCGCRAQAKHKQRKRLKSSCKRHPLY
Kd [5]: 30.2 nM

B6: Recombinant polypeptide of clones 15 + 21 (designed binder)
chain: VDFSDVGWNDWIVAPPGYHAFYCHGECPFPLADHLNSTNHAIVQTLVNSVNSKIPKACCVPTELSAISMLYLDENEKVVLKNYQDMVVEGCGCR
Kd [6]: 32.6 nM

B7: Recombinant polypeptide of clones 14 + 19 (designed binder)
chain: B6 chain with S4K, W11H, I12A, T38D, L46K, I54D, I67P, M69P, V78P, E89H
Kd [7]: 31 nM

B8: Recombinant polypeptide of clones 14 + 8 + 19 (designed binder)
chain: VDFKDVGWNDHAVAPPGYHAFYCHGECPFPLADHLNSDNHAIVQTKVNSVGQAKRKGYKRLKSSCKRHPLYNSKDPKACCVPTELSAPSPLYLDENEKPVLKNYQDMVVHGCGCR
Kd [8]: 17.6 nM

B9: Recombinant polypeptide of clones 10 + 15 + 21 (designed binder)
chain: AQAKHKQRKRLKSSCKRHPLYVDFSDVGWNDWIVAPPGYHAFYCHGECPFPLADHLNSTNHAIVQTLVNSVNSKIPKACCVPTELSAISMLYLDENEKVVLKNYQDMVVEGCGCR
Kd [9]: 17.2 nM

B10: Recombinant polypeptide of clones 12 + 30 (designed binder)
chain: AQAKHKQYKRLKSSCKRHPLYTALDGTRGAQGSGGGGGGGGGGGGGGGGGGGGAGRGHGRRGRSRCSRKSLHVDFKELG
Kd [10]: 59.1 nM

B11: Recombinant polypeptide of clones 12 + 16 (designed binder)
chain: AQAKHKQYKRLKSSCKRHPLYVDFSDVGWNDWAVAPPGYHAFYCHGECPFPLADHLNSDNHAIVQTLVNSV
Kd [11]: 67.4 nM

B12: Recombinant polypeptide of clones 8 + 14 (designed binder)
chain: B11 chain with A1G, H5R, Q7G, S25K, W32H, L67K
Kd [12]: 35.1 nM

B13: Recombinant polypeptide of clones 10 + 15 (designed binder)
chain: B11 chain with Y8R, A33I, D59T
Kd [13]: 31.3 nM

B14: Recombinant polypeptide of clones 21 + 10 + 15 (designed binder)
chain: NSKIPKACCVPTELSAISMLYLDENEKVVLKNYQDMVVEGCGCRAQAKHKQRKRLKSSCKRHPLYVDFSDVGWNDWIVAPPGYHAFYCHGECPFPLADHLNSTNHAIVQTLVNSV
Kd [14]: 16.7 nM

B15: Recombinant polypeptide of clones 10 + 21 (designed binder)
chain: AQAKHKQRKRLKSSCKRHPLYNSKIPKACCVPTELSAISMLYLDENEKVVLKNYQDMVVEGCGCR
Kd [15]: 27.3 nM

B16: Recombinant polypeptide of clones 15 + 10 + 21 (designed binder)
chain: VDFSDVGWNDWIVAPPGYHAFYCHGECPFPLADHLNSTNHAIVQTLVNSVAQAKHKQRKRLKSSCKRHPLYNSKIPKACCVPTELSAISMLYLDENEKVVLKNYQDMVVEGCGCR
Kd [16]: 15.1 nM

B17: Recombinant polypeptide of clones 19 + 8 (designed binder)
chain: NSKDPKACCVPTELSAPSPLYLDENEKPVLKNYQDMVVHGCGCRGQAKRKGYKRLKSSCKRHPLY
Kd [17]: 33.5 nM

B18: Recombinant polypeptide of clones 30 + 12 (designed binder)
chain: TALDGTRGAQGSGGGGGGGGGGGGGGGGGGGGAGRGHGRRGRSRCSRKSLHVDFKELGAQAKHKQYKRLKSSCKRHPLY
Kd [18]: 61.1 nM

B19: Recombinant polypeptide of clones 8 + 19 (designed binder)
chain: GQAKRKGYKRLKSSCKRHPLYNSKDPKACCVPTELSAPSPLYLDENEKPVLKNYQDMVVHGCGCR
Kd [19]: 31.1 nM
